Laboratory results from IntAct's records for PubMed 22270917.

Molecular target: fak1_human PTK2 (UniProt Q05397)
Sequence (Q05397 whole entry, looked up): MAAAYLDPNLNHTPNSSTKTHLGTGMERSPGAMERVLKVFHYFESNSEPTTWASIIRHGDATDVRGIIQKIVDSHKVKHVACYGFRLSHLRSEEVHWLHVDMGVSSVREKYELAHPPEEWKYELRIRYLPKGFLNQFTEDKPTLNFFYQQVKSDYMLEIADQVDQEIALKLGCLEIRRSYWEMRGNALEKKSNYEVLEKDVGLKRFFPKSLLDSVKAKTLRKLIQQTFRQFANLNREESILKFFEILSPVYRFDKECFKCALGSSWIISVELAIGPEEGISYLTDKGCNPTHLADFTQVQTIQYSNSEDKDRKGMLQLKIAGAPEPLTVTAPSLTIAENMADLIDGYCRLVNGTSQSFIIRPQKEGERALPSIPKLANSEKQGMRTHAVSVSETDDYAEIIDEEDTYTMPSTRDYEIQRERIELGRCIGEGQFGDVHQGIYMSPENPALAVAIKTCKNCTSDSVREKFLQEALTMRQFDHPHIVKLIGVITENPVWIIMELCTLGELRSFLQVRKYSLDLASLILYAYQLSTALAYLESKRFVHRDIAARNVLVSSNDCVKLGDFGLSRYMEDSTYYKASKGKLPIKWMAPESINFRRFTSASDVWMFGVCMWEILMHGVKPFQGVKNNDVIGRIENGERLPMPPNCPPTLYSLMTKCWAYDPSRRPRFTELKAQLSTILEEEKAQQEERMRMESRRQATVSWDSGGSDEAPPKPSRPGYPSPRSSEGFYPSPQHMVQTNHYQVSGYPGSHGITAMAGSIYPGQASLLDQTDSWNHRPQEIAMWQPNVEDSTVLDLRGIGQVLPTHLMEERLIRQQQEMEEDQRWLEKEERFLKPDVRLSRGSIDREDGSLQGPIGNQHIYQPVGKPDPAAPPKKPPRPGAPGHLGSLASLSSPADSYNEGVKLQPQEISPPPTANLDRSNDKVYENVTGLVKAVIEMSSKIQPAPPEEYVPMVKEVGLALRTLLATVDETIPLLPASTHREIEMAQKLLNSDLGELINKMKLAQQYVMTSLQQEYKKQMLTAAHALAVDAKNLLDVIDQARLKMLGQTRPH

effect of a mutation on the interaction | Substance
disrupting interaction | Talin-1 (Gallus gallus (Chicken)), P54939 W359A
disrupting interaction | Talin-1 (Gallus gallus (Chicken)), P54939 A360E
